Here are results for 4 molecules from publication PMC5537682, “DNA-Interacting Characteristics of the Archaeal Rudiviral Protein SIRV2_Gp1”.

For series [1], the target named is T1, SIRV2_Gp1 (Sulfolobus islandicus rod-shaped virus …, UniProt Q8UYE8 1-83).
T1 sequence: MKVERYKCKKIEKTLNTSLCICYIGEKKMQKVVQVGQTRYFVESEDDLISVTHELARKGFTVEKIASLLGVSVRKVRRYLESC
Nature of the series: EMSA; >1 uM protein needed; 6-FAM EMSA: 50 mM Tris pH 7.5, 5 mM EDTA, 1 mM DTT, 100 ug/mL BSA, 100 nM probe, 20 min room temperature; 32P EMSA: 20 mM Tris pH 8.0, 0.4 mM EDTA, 1 mM MgCl2. The following applies: protein: recombinant, tags: C-terminal His-tag (pEXP5-CT/TOPO). On the technique in general: Mobility shift assays separate free from complexed probe on a gel.

Series [2] has as its target T1, SIRV2_Gp1. Briefly: EMSA; low affinity, >1 uM protein needed; smearing, unbound probe remains; 6-FAM EMSA: 50 mM Tris pH 7.5, 5 mM EDTA, 1 mM DTT, 100 ug/mL BSA, 100 nM probe, 20 min room temperature; 32P EMSA: 20 mM Tris pH 8.0, 0.4 mM EDTA, 1 mM MgCl2. The following applies: protein: recombinant; tags: C-terminal His-tag (pEXP5-CT/TOPO); label: 5'-6-FAM; single strand.

The target of series [3] is T1, SIRV2_Gp1. Nature of the series: EMSA; >1 uM protein needed; higher affinity than single-stranded probes; 6-FAM EMSA: 50 mM Tris pH 7.5, 5 mM EDTA, 1 mM DTT, 100 ug/mL BSA, 100 nM probe, 20 min room temperature; 32P EMSA: 20 mM Tris pH 8.0, 0.4 mM EDTA, 1 mM MgCl2. The following applies: protein: recombinant; tags: C-terminal His-tag (pEXP5-CT/TOPO); blunt.

B1: hairpin DNA (oligo 5) (structured_DNA)
DNA: TGAGTTTTTTTCATTTTTTGCGTAAATTTCGAAATTTACGCAAAAAATGAAAAAAACTCA
For B1, the binding result with SIRV2_Gp1 [1] (label: 5'-6-FAM, hairpin) is reported as “binds”.

In the case of TGAGTTTTTTTCATTTTTTGCGTAAATTTC (ssDNA) [random 30-nt ssDNA (oligo 3)], the binding result in the series with SIRV2_Gp1 [2] is “binds”.

B2: random 30-bp dsDNA (oligos 3-4) (dsDNA)
DNA 1: TGAGTTTTTTTCATTTTTTGCGTAAATTTC
DNA 2: GAAATTTACGCAAAAAATGAAAAAAACTCA
Regarding B2, in the series with SIRV2_Gp1 [3], the binding result was “binds”.

B3: Holliday junction DNA (oligos 7-10) (structured_DNA)
DNA 1: GCGTTACAATGGAAACTATTCTTGGCAGTTGCATCCAACG
DNA 2: CGTTGGATGCAACTGCCAAGAATAGTGTCAGTTCCAGACG
DNA 3: CGTCTGGAACTGACACTATTCTTGGCGAATGGTCGTAAGC
DNA 4: GCTTACGACCATTCGCCAAGAATAGTTTCCATTGTAACGC
Take B3: the binding result with SIRV2_Gp1 [1] (four-way junction of 4 strands) was “binds”.
